From paper PMC2883556 (PLoS ONE, 2010) come the findings set out here.

The target of test [1] is T1, BoNT/B GST-fusion peptide fragment L1 (Clostridium botulinum strain Okra / …, UniProt B1INP5).
T1 construct: not shown: GST, N-terminal, kept
Put plainly: ELISA. Conditions: one partner purified. Background: An ELISA detects its analyte on a solid surface through an enzyme-linked reagent.

The target in test [2] is T2, BoNT/B GST-fusion peptide fragment L2 (Clostridium botulinum strain Okra / …, UniProt B1INP5).
T2 construct: Cloned in pGS-21a; not shown: GST, N-terminal, kept
Kind of test: ELISA. Conditions: one partner purified.

In test [3] the target is T3, BoNT/B GST-fusion peptide fragment H1 (Clostridium botulinum strain Okra / …, UniProt B1INP5).
T3 construct: not shown: GST, N-terminal, kept
Put plainly: ELISA. To be noted: one partner purified.

The target in test [4] is T4, BoNT/B GST-fusion peptide fragment H2 (Clostridium botulinum strain Okra / …, UniProt B1INP5).
T4 construct: not shown: GST, N-terminal, kept
Kind of test: ELISA. Conditions: one partner purified.

Test [5] concerns the target T5, BoNT/B GST-fusion peptide fragment H3 (Clostridium botulinum strain Okra / …, UniProt B1INP5).
T5 construct: Cloned in pGS-21a; not shown: GST, N-terminal, kept
Kind of test: ELISA. Conditions: one partner purified.

In test [6] the target is T6, BoNT/B GST-fusion peptide fragment H4 (Clostridium botulinum strain Okra / …, UniProt B1INP5).
T6 construct: not shown: GST, N-terminal, kept
Put plainly: ELISA. To be noted: one partner purified.

Test [7] addresses T7, Botulinum neurotoxin serotype C (Clostridium botulinum, UniProt P18640).
T7 construct: source: bought: Metabiologics
Kind of test: ELISA. To be noted: both partners purified.

The target in test [8] is T8, Botulinum neurotoxin serotype D (Clostridium botulinum, UniProt P19321).
T8 construct: source: bought: Metabiologics
Put plainly: ELISA. To be noted: both partners purified.

The target of test [9] is T9, BoNT/B GST-fusion peptide fragment Lc (Clostridium botulinum Okra / Type B1, UniProt B1INP5).
T9 construct: not shown: GST, N-terminal, kept
Kind of test: ELISA. Conditions: one partner purified.

Test [10] deals with T10, BoNT/B GST-fusion peptide fragment Hc (Clostridium botulinum strain Okra / …, UniProt B1INP5).
T10 construct: Cloned in pGS-21a; not shown: GST, N-terminal, kept
Put plainly: ELISA. To be noted: one partner purified.

In test [11] the target is T11, BoNT/B GST-fusion peptide fragment H5 (Clostridium botulinum Okra / Type B1, UniProt B1INP5).
T11 construct: Cloned in pGS-21a; not shown: GST, N-terminal, kept
Put plainly: ELISA. Conditions: one partner purified.

Test [12] deals with T5, BoNT/B GST-fusion peptide fragment H3. Kind of test: ELISA. Conditions: one partner purified. The source holds these as a separate data set.
Test [13] concerns the target BoNT/B heavy chain (band of the reduced holotoxin) (Clostridium botulinum Okra / Type B1, UniProt B1INP5). Put plainly: far-Western, overlay or dot blot. Conditions: both partners purified.

B1: monoclonal antibody MCS6-27 (antibody, V domains shown)
VH: EVQLEQSGPGLVKPSQSLSLTCTVTGYSITNDYAWNWIRQFPGNKLEWMGYINYSGTTSYNPSLKSRISITRDTSKNQFFLQFNSVTTEDTATYYCARSPLAYWGQGTLVTVSA
VL: DIVLTQTPASLSVSVGETVTITCRASENIYSHLAWYQQKQGKSPQLLVYTATNLADGVPSRFSGRGSGTQYSLKINSLQSEDFGIYFCQHFWGTPWTFGGGTKLEIK
notes: also called mAb MCS6-27
For the molecule B1, the binding result in test [1], in test [2], in test [3], in test [4], in [5] and in test [6] was “no binding” in each case. Moreover, the binding result was “no binding (tested: 10 µg/mL)” in test [7]; “no binding (tested: 10 µg/mL)” in [8]; “no binding” in test [9]; “binds” in test [10]; “binds” in test [11].

B2: monoclonal antibody F29-40 (antibody, V domains shown)
VH: EVQLEESGPELVKPGTSVKISCKASGYSFTGYIINWVMQSQGKTPEWIGRINPNNGDTSYNQKFKGKATLTVDRSSSTAHMEVRSLTSEDSAVYYCARTGFGYWGQGTLVTVSA
VL: DIVITQTPASLAVSLGQRATISCRASESINYYGTNLLQWYQQKPGQPPKLLIYAASNVESGVPARFSGSGSGTDFSLNIHPVEEDDIAMYFCQQSRKVPFTFGSGTRLEIK
notes: also called mAb F29-40
B2: the binding result is given as “no binding” in test [1]; “no binding” in [2]; “no binding” in test [3]; “no binding” in test [4]; “no binding” in [6]; “no binding (tested: 10 µg/mL)” in test [7]. For the same molecule, the binding result in [8] is listed as “no binding (tested: 10 µg/mL)”; in test [9], “no binding”; in test [10] it was “binds”; in test [12], “binds”; in [11], “binds”; in test [13] it was “binds”.
